Results on 31 molecules are retold here after article PMC2709974 (Journal of molecular biology, 2009).

Data set [1] deals with T1, IscR-C92A/C98A/C104A (clusterless) (Escherichia coli, UniProt P0AGK8 1-162, C92A;C98A;C104A).
T1 sequence: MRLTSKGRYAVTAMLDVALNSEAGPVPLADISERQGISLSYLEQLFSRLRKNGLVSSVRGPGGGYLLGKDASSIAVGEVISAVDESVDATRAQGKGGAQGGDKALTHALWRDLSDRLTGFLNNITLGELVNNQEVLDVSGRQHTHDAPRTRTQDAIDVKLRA
In words: competition.

The data set “SEC” deals with the molecule itself. In words: SEC.
The data set “AUC” deals with the molecule itself. In words: AUC.
For data set [2], the target named is T2, IscR wild-type (as purified, about 60% [2Fe-2S] occupied) (Escherichia coli, UniProt P0AGK8 1-162).
T2 sequence: T1 sequence with A92C, A98C, A104C
In words: fluorescence anisotropy. On the technique in general: Fluorescence polarisation rises when a labelled molecule tumbles more slowly, as on binding a larger partner.

The target of data set [3] is T1, IscR-C92A/C98A/C104A (clusterless). In words: fluorescence anisotropy.
Data set [4] shares this target. In words: fluorescence anisotropy. The source holds these as a separate data set.
For data set [5], the target named is T2, IscR wild-type (as purified, about 60% …). In words: fluorescence anisotropy. The source holds these as a separate data set.

Positions count from the first letter of the chain named. In names and notes the source's numbering stands.

B1: hya -36(T to C) (dsDNA)
DNA 1: ATAAATCCACACAGTTTGTATCGTTTTGTG
DNA 2: CACAAAACGATACAAACTGTGTGGATTTAT
Broadly, the IC50 is the concentration that inhibits the measured activity by half. Read a high IC50 as weaker potency in that assay. For B1, the IC50 in data set [1] was 134 nM.

B2: hya -39 (dsDNA)
DNA 1: B1 DNA 1 with T19A, C22T
DNA 2: B1 DNA 2 with G9A, A12T
B2 displayed an IC50 in data set [1] of 199 nM.

B3: hya -55 (A to C) (dsDNA)
DNA 1: B1 DNA 1 with A3C, C22T
DNA 2: B1 DNA 2 with G9A, T28G
In turn, B3 returned an IC50 in data set [1] of 394 nM.

B4: hya -46 (dsDNA)
DNA 1: B1 DNA 1 with C12T, C22T
DNA 2: B1 DNA 2 with G9A, G19A
B4 came in with an IC50 in data set [1] of 37 nM.

B5: hya -36(T to A) (dsDNA)
DNA 1: B1 DNA 1 with C22A
DNA 2: B1 DNA 2 with G9T
In turn, B5 returned an IC50 in data set [1] of 52 nM.

B6: hya -41 (dsDNA)
DNA 1: B1 DNA 1 with T17A, C22T
DNA 2: B1 DNA 2 with G9A, A14T
Molecule B6 gave an IC50 in data set [1] of 34 nM.

B7: hya -42,-41 (dsDNA)
DNA 1: B1 DNA 1 with T16G, T17G, C22T
DNA 2: B1 DNA 2 with G9A, A14C, A15C
B7 came in with an IC50 in data set [1] of 300 nM.

B8: hya -51 (dsDNA)
DNA 1: B1 DNA 1 with C7G, C22T
DNA 2: B1 DNA 2 with G9A, G24C
The molecule B8 returned an IC50 in data set [1] of 400 nM.

B9: hyaA competitor (dsDNA)
DNA 1: B1 DNA 1 with C22T
DNA 2: B1 DNA 2 with G9A
B9 showed an IC50 in data set [1] of 29 nM.

B10: hya -36(T to G) (dsDNA)
DNA 1: B1 DNA 1 with C22G
DNA 2: B1 DNA 2 with G9C
The molecule B10 displayed an IC50 in data set [1] of 16 nM.

B11: hya -48(C to T) (dsDNA)
DNA 1: B1 DNA 1 with C10T, C22T
DNA 2: B1 DNA 2 with G9A, G21A
As for B11, the IC50 in data set [1] was determined as 48 nM.

B12: hya -42 (dsDNA)
DNA 1: B1 DNA 1 with T16A, C22T
DNA 2: B1 DNA 2 with G9A, A15T
For the molecule B12, the IC50 in data set [1] stood at 73 nM.

B13: hya -35 (dsDNA)
DNA 1: B1 DNA 1 with C22T, G23T
DNA 2: B1 DNA 2 with C8A, G9A
In data set [1], B13 returned an IC50 of 505 nM.

B14: hya -40 (dsDNA)
DNA 1: B1 DNA 1 with G18C, C22T
DNA 2: B1 DNA 2 with G9A, C13G
As to B14, in data set [1], the IC50 amounted to 39 nM.

B15: hya -53,-52 (dsDNA)
DNA 1: B1 DNA 1 with A5T, T6C, C22T
DNA 2: B1 DNA 2 with G9A, A25G, T26A
Consider B15, for which the IC50 in data set [1] turned out to be 33 nM.

B16: hya -44,-43 (dsDNA)
DNA 1: B1 DNA 1 with G14T, T15G, C22T
DNA 2: B1 DNA 2 with G9A, A16C, C17A
Molecule B16 had an IC50 in data set [1] of 89 nM.

B17: Palindrome1-2 (dsDNA)
DNA 1: B1 DNA 1 with C10T, C22G, T24A
DNA 2: B1 DNA 2 with A7T, G9C, G21A
In the case of B17, the IC50 in data set [1] was about 10 nM.

B18: Palindrome1 (dsDNA)
DNA 1: ATAAATACATACAGTTTGTATGTATTTGTG
DNA 2: CACAAATACATACAAACTGTATGTATTTAT
In data set [1], B18 displayed an IC50 of 202 nM.

B19: hya -32,-30 (dsDNA)
DNA 1: B1 DNA 1 with C22T, T26A, G28C
DNA 2: B1 DNA 2 with C3G, A5T, G9A
B19 had an IC50 in data set [1] of 18 nM.

B20: hya -31 (dsDNA)
DNA 1: B1 DNA 1 with C22T, T27G
DNA 2: B1 DNA 2 with A4C, G9A
In data set [1], B20 showed an IC50 of 263 nM.

B21: hya -50(C to A) (dsDNA)
DNA 1: B1 DNA 1 with C8A, C22T
DNA 2: B1 DNA 2 with G9A, G23T
As to B21, the IC50 in data set [1] amounted to 268 nM.

B22: wild-type IscR (as purified, 35% occupied with [2Fe-2S] cluster) (natural protein, Escherichia coli, UniProt P0AGK8 1-162, looked up)
chain: T1 sequence with A92C, A98C, A104C
A word on the stoichiometry N: it is a count of units in the complex or per binding partner. Take B22: the “stoichiometry N” value in the data set “SEC” was found to be 2.

B23: apo-IscR (generated from wild-type IscR by treatment with 2,2'-dipyridyl) (natural protein, Escherichia coli, UniProt P0AGK8 1-162, looked up)
chain: T1 sequence with A92C, A98C, A104C
As for B23, in the data set “SEC”, the “stoichiometry N” value worked out at 2.

B24: IscR-C92A/C98A/C104A (natural protein, Escherichia coli, UniProt P0AGK8 1-162, looked up)
chain: T1 sequence
B24: in the data set “AUC”, the “stoichiometry N” value came to 2.

B25: hya -47 (dsDNA)
DNA 1: B1 DNA 1 with A11T, C22T
DNA 2: B1 DNA 2 with G9A, T20A
On to B25, for which the IC50 in data set [1] was 190 nM.

B26: hya -34/33 (dsDNA)
DNA 1: B1 DNA 1 with C22T, T24A, T25A
DNA 2: B1 DNA 2 with A6T, A7T, G9A
In data set [1], B26 yielded an IC50 of 39 nM.

B27: hya -44,-42,-41,-40 (dsDNA)
DNA 1: ATAAATCCACACATTGGTTATTGTTTTGTG
DNA 2: CACAAAACAATAACCAATGTGTGGATTTAT
Consider B27, for which, in data set [1], the IC50 was 785 nM.

B28: hya -49 (dsDNA)
DNA 1: B1 DNA 1 with A9T, C22T
DNA 2: B1 DNA 2 with G9A, T22A
In data set [1], B28 registered an IC50 of 44 nM.

B29: randomized hya site, labeled 30-mer (dsDNA)
DNA 1: ATCATCCGTCTTATGTTAATTATAATGGTG
DNA 2: CACCATTATAATTAACATAAGACGGATGAT
As for B29, the binding result in data set [2] and in data set [3] was “no binding” in each case.

B30: hya -54,-48,-45,-37 (dsDNA)
DNA 1: ATATATCCAGACTGTTTGTAATGTTTTGTG
DNA 2: CACAAAACATTACAAACAGTCTGGATATAT
For the molecule B30, the IC50 in data set [1] came to 80 nM.

B31: hyaA site, labeled 30-mer (dsDNA)
DNA 1: B1 DNA 1 with C22T
DNA 2: B1 DNA 2 with G9A
As a reminder, the Kd is the equilibrium constant for the complex coming apart. A lower Kd goes with higher affinity. On to B31, for which the Kd in data set [4] worked out at 44 ± 3 nM; in data set [5] it was 34 ± 2 nM.
